This assay concerns the target CCR5 expressed on the surface of pancreatic cancer cells (human (endogenous in AsPC-1, BxPC-3, MIA PaCa-2)) (UniProt P51681).
UniProt P51681, sequence (P51681 whole entry): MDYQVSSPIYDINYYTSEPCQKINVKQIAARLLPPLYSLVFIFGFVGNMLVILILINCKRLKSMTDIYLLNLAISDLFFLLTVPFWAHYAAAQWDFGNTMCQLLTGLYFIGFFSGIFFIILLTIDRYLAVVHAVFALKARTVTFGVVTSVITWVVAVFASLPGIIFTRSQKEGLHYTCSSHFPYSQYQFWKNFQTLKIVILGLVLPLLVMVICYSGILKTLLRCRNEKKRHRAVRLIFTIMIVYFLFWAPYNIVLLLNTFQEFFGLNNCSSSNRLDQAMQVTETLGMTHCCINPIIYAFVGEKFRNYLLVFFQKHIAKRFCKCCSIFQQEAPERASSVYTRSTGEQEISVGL

As to “CCL5 (CC chemokine ligand 5) recombinant protein (from UniProt P13501 24-91)”, the CCR5 mRNA (qRT-PCR) in AsPC-1 cells in presence of CCL5, fold against untreated; decreased by maraviroc worked out at 11 fold; the CCR5 mRNA (qRT-PCR) in BxPC-3 cells in presence of CCL5, fold against untreated; decreased by maraviroc amounted to 7 fold; the CCR5 mRNA (qRT-PCR) in MIA PaCa-2 cells in presence of CCL5, fold against untreated; decreased by maraviroc was determined as 4 fold.

Values taken from article PMC5778036.
